The record followed here is the nanobody polyreactivity screen of Harvey et al. (2022).

The nature of the data set: yeast display, Sf9 membrane polyspecificity reagent, FACS + sequencing; frameworks hold sequencing errors. A digest of the protocol:
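A synthetic nanobody library was expressed on Saccharomyces cerevisiae BJ5465 by galactose induction for 36–48 hours. The library was stained for 1 hour at 4 °C with 10% biotinylated, detergent-solubilized Sf9 membrane reagent and enriched with streptavidin microbeads before FACS. Low and high (top ~1%) gates were set on anti-HA fluorescence for expression and streptavidin fluorescence for reagent binding, and each polyreactivity label reflects the gate of origin.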
As for “QVQLVESGGGLVQAGRSLRLSCAASGRIFSYNAMGWYRQAPGKETELVAAITFSGGRTYYADSVKGRFTISRDNAKNTVYLQMNSLKPEDTAVYYCNAYWQGYGYDYWGQGTQVTVSS”, the “polyreactivity (PSR sort gate)” value is “low polyreactivity”.

Take “QVQLVESGGGLVQARGSLRLSCAASGSTFGGYAMGWYRKAPGKERELVASISAIGGSTYYADSVKGRFTISRDNAKNTFYLQMNSMKPEDTAVYYCAAQRGGGPNDYWGQGTQVTVSS”: the “polyreactivity (PSR sort gate)” value is on record as “high polyreactivity”.

“QGQLGESGGGLVQAGGSLRLSCAASGRIFNCYGMGWYRQAPGKERELVATISKSSDITYYADSVKGRFTISRDIAKNNVYLQMNSLRPEDTAVYYCAAKVRQWRQGSYSSQYDYWGQGTQVTVSS”: the “polyreactivity (PSR sort gate)” value is listed as “high polyreactivity”.

Consider “QVQLVESGGGLVQAGGSLRLSCAASGFTFSKYAMGLYRQAPGKERELVAAITRRGSSTYYADSVKGRFTLSRDNAKNTVYLQMNSLKPEDTAVYYCNAPRPNGYLGEDNYWGQGTKVTVSS”, for which the “polyreactivity (PSR sort gate)” value is “high polyreactivity”.

Turning to “QVQLVEAGGGFVQAGGRLRLSCAASGSIFTLNTRGWYSPAPGKEREWVAAMTGSGGITYSADSVKGRFTISRDKAKKTVYLQLNSLKPEETAVYYCAADTGYVHAGYWGQGTQVTVSS”, the “polyreactivity (PSR sort gate)” value is on record as “low polyreactivity”.

As to “QVQLVESGGGLVQAGGSLRLSCAASGLIFNTYAMGWYRQAPGKERELVAAITDGGGTNYADSVKGRFTISRDNAKNTVYLQMNSLKPEDTAVYYCAARLASWPLTYDFQWYEYWVQGTQVTVSS”, the “polyreactivity (PSR sort gate)” value is recorded as “low polyreactivity”.

For “QVQLVESGGGLVQAGGSLRLSCAASGSILVYYAMGWYRQAPGKERELVAAISSGGSTNYADSVKGRFTISRDNAKNTVYLQMNSLKPEDTAVYYCAKESGWVGAIHYDYWGQGTQVTVSS”, the “polyreactivity (PSR sort gate)” value is on record as “low polyreactivity”.

For the sequence “QVQLVESGGGLVQAGGSLRLICAASGFAFSYYAMGWYRQAPGKEREFVASIDWSGGSTYYADSVKGRFTISRDNEKNTVYLQMNSLKPEDTAVYYCAAELDYFPGYDYWGQGTQVTVSS”, the “polyreactivity (PSR sort gate)” value is “low polyreactivity”.

As for “QVQLVESGGGLVQAGGSLRLSCAASGSIFSRNAMGWYRQAPGKEREFVARISWSSTSTNYADSVKGRFTISRDNSKNTVFLLINSLKPEDTAVYYCAADFRGDRRFDYWGQGTQVTVSS”, the “polyreactivity (PSR sort gate)” value is recorded as “low polyreactivity”.

Turning to “QVQLVESGGGLVQARGSLRLSCAASGSTFGWYAMGWYREAPGKERELVAAIYRGGGSTYYADSVKVRFTISRDNAMNTVYLQMNSLKPEDTAVYYCAAYSYYQGGMDYWGEGTQVTVSS”, the “polyreactivity (PSR sort gate)” value is listed as “high polyreactivity”.

As for “QVQHVESGGGLVQAGGSLRLSCAASGSIFWDNAMGWYRQAPGKERELVAAITSSGDTTYYADSVKGRFTISRDNAKNTVYLQMNSLKPEDTAVYYCAKVFGPTDYLTGTFKGDYWGQGTQVTVSS”, the “polyreactivity (PSR sort gate)” value was “low polyreactivity”.

Take “QVHLVESGGGLVQEGGSLRLTSAASGITFVRNTLGWYRQAPGKERELVAAIDSGGNTYADSVKGRFTITRDNAKNTVYLQMNSLKPEDTAVYFCAVDGGEVSSYGYWGQGTQVTVSS”: the “polyreactivity (PSR sort gate)” value is recorded as “low polyreactivity”.

For “QVQLVESGGGLVQAGGSLRLSCAASGRTFIANAMGWSRQAPGKERELVAAISWSGGSTYYADSVKGRFTISRDNAKNTVYLQMNSLKPEDTAVYYCTAKRFRTGFDYWGQGTQVTVSS”, the “polyreactivity (PSR sort gate)” value is listed as “low polyreactivity”.

For “QVQLVESGGGLVQAGGSHRLSCAACGYIFFYNAMGWYRQAPGKERELVASITYRGGSTYYADSVKGRFTISRDNAKNSVYLQMNSLKPEDTAVYYCNVDGGGPLGPQGFPFDYWGQGTQVTVSS”, the “polyreactivity (PSR sort gate)” value is “low polyreactivity”.

“QVQLVESGGGLVQAGGSLRLSCAASGSIFDGYAMGGSRQAPGNERELLAAISSGTSTNYADSVKGRFTISRDNAKNTVYLQMNSLKPEDTAVYYCNAYPPYLYATYDYWGQGTQVTVSS”: the “polyreactivity (PSR sort gate)” value is given as “low polyreactivity”.

Take “QVQLVESGGGLVQAGGSLRLSCAASGRIFGRYAMGWYRQAPGKERELVAAIPRNGGSTYADSVNGRFTISRDNAKNTVYLQMNILKPEDTAVYYCAKKRGGKKSGPHDYWGQGTQVTVSS”: the “polyreactivity (PSR sort gate)” value is listed as “high polyreactivity”.

With “QVQLVETGGGLVQAGGSLRVSCAASGSTFSGYAMGWYRQAPGKERELVAAITRSGGRTYYADSVKGRFTISRDNAKNTVYLQMNSLLPEDTAVYYCATDRAYYHSYGRFGYWGQGTHVTVSS”, the “polyreactivity (PSR sort gate)” value was “high polyreactivity”.

Take “QVQLVDSGGGLVQAGGSLRLSCAASGFILSRYTMGWYRQAPGKERELVATISSGGRTYYADSVKGRFTISRDNAKNTVYLQMNSLKPEDTAVYYCAAAYTYWRISGNRYLYDYWGQGTQVTVSS”: the “polyreactivity (PSR sort gate)” value is “high polyreactivity”.

Consider “QVQLVDSAGALVQAGGSLRLSCAASGRTFRYNAMGWYRQAPGKERELVAAITQSGGSTYYADSVKGRFTISRDNAKNTVYLQMNSQKPEDTAVYYCAKVRERINYDYWGQGTQVTVSS”, for which the “polyreactivity (PSR sort gate)” value is listed as “low polyreactivity”.

Consider “QVHLVESGGGIVQAGGSLRLSCAASGSIFKKNAMGWSRQAPGKERELVAAITLSSSDTYYADSVKGRFTISRDNAKNTVYLQMNSLKPEDTAVYYCAAKRTRDMDYWGQGTQVTVSS”, for which the “polyreactivity (PSR sort gate)” value was “high polyreactivity”.

Consider “QVQLVESGGGLVQAGGSLRLSCAASGSTFASYAMGWYRQAPGKETELVASITRRGCSTDYADSVKGRFTISRDNAKNTVDFPMNLLKPEDTAVYYCATYSYPERTGGHRTHYYWGQGTQVTVSS”, for which the “polyreactivity (PSR sort gate)” value was “high polyreactivity”.

Turning to “QVQLVESGGGLVQAGGSLRLSCAASGITFFGYALGWYRQAPGKERELVADITTSDSTYYADSVKGRFTISRDNAKNTVYLQMNSLKPEDTAVYYCNADYYDGGYGPGVEEYDYWGQGTQVTVSS”, the “polyreactivity (PSR sort gate)” value is reported as “low polyreactivity”.

Take “QVQLVESGGGLVQAGGSLRLSCAASGSILGGNAMGWYRQAPGKERELVAAITFSGGGTYYADSVKGRFTISRDNAKNTVYLQMNRLKPEDTAVYYCNAFGPDYYHVYPAEDYWGQGTQVTVSS”: the “polyreactivity (PSR sort gate)” value is “low polyreactivity”.

Regarding “QVQLVESGGGLVQAGGSLRLSCAASGRTFYPYTMGWYRQAPGKEMELVAAITTSTGNTYYADSVKGRFTISRDNAKNNVYLQMNILKPEDTSVYYCAADTVWRLDYWGQGTKVTVSS”, the “polyreactivity (PSR sort gate)” value is reported as “low polyreactivity”.

Consider “QVQLLESGGGIVQAGGSLRLSCAASGSTYVIYDMVWYRQAPGKERELVAVITIIGGSTYYADSVKGRFTISRDNAKNTVYLQMISLKPEDTAVYYCNANVIQDYPNYDYWGQGTLVTVSS”, for which the “polyreactivity (PSR sort gate)” value is given as “low polyreactivity”.

Consider “QVQLVESGGGLVQAGGRLRLSCAASGRIFYVYAMGGYRQAPGKERELVAAISRGGSTNSADSVKGRFTISRDNAKNTVYLQMNSLKPEDTAVYYCAASSLPHYSYRHSYLYVYWGQCTQVTVSS”, for which the “polyreactivity (PSR sort gate)” value is “low polyreactivity”.

“QVQLVESAGGLVQAGGSLRLSCAASGIIFGQNAMGWYRQAPGKDRELVAAITISGGSTYYADSVKGRFTISRDNAKNTVYLQMNSLKPEVTAVYYCAARRVTWKDIAGGYRYGYWGQGTQVTVSS”: the “polyreactivity (PSR sort gate)” value is listed as “low polyreactivity”.

“QVQLVESGGGLVQAGGSLRLSCAASGRTFAAYAMGWYIQSPGKERELVAAISSTSGNTYYADSVKGRFTISRDNAKNTVYLQMNSLKPEDTAVYYCNAQRRFNANYWYDYWGQGTQVTVSS”: the “polyreactivity (PSR sort gate)” value is “high polyreactivity”.

Turning to “QVQLVESGGGLVQAGGSLRLSCAASGFIIYRYAMGWYRQAPGKEREVVATISSRGGSTYYADSVKGRFTISRDNAKNTVYLQMNSLKPEDTAVYYCNVRTRVKTTQSYDRNNYYWGQGTQVTVSS”, the “polyreactivity (PSR sort gate)” value is recorded as “high polyreactivity”.

As to “QVQLVESGGGLVQAGGSLRLSCAAYGRIFSYYAMGWYRQAPGKERELVATINSGGSTNYADSVKGRFTISRDNAKNTVYLQMNSLKPEDTAVYYCDASPVWWYDYWGQGTQVTVSS”, the “polyreactivity (PSR sort gate)” value was “low polyreactivity”.
